{"source": "the DeepSol protein solubility set"}
{"assay": "soluble on expression in E. coli; label from the status in PepcDB or PDB records"}
{"sequence": "MAHHHHHHMESINRNNNINKNEIDNKINNNNNMDVPIEGNEKSQEGDIIGQFGVGFYSSFVVSNKVEVFTRSYDNNSSKGYHWVSYGNGTFTLKEVDNIPKGTKIICHLKDSCKEFSNIQNVQKIVEKFSSFINFPVYVLKKKKILQT", "soluble on expression in E. coli": "soluble"}
{"sequence": "MAHHHHHHMESINRNNNINKNEIDNKINNNNNMDVPIEGNEKSQEGDIIGQFGVGFYSSFVVSNKVEVFTRSYDNNSSKGYHWVSYGNGTFTLKEVDNIPKGTKIICHLKDSCKEFSNIQNVQKIVEKFSSFINFPVYVLKKKKILQTRKDIEQNELNDHTQQNELNHHNDQNDHTQQNELNHHNDQNDHTQQNELNHHNDQNDHTQQNELNHHVEHHKNVVENKNDEYEKNMDNRTSDNIKPESLSKQNDYENMNQCNNEETVLNRTKELNEEHIVEEILVNKQKPLWCKDNVTEEEHRHFFHFLNKNKSYNEDNKSYLYNMLYKTDAPLSIKSVFYIPEEAPSRLFQQSNDIEISLYCKKVLVKKNADNIIPKWLYFVKGVIDCEDMPLNISRENMQDSSLINKLSRVVVSKILKTLEREADINEEKYLKFYKNYNYNLKEGVLEDSNKNHYKNSLMNLLRFYSINQNKFISLKQYVNNFRNNQKNIYYFSANDKNVALNSPYMEPFKKQNIDVLLLLEEIDEFVLMNLQTYKDAKFVSIDTSQNEDFDEAVLNTNKNDNEKKQSIFFNDEQKKELQAYFKQVLGSKCSDVKFSERLTTSPAVVTGFLSPTLRKVMKATMKNSDFNDNTNNSNNMNMFQNLPATLELNPSHTIVTSIYHLKNTNQEVAKLLVQQLYDNACIAAGILEDPRSLLSKLNELLLLTARYAYHYEKKDIQENTKDQPIDVKDNTMAIDNIVNTKENNTNDDSVMKEAQSSNL", "soluble on expression in E. coli": "not soluble"}
{"sequence": "MAHHHHHHMESNNHTTDLPSHAPGVEAAPIAAATPPLTGLAEGAVVTEGASHPKMAAAEPSEATATESPPSPHSTGEAKTQNALAALMSVLDNDEAARRGGTSLRSLQKMCMRVPQLSTELTRPQRFQLYCLLLLEDGDDPAVPGGAAGQEDWTTYTKQALETHVHMAKQAAALFPPPSTSPPTNSPASSTAWAPMRPFTSIRQ", "soluble on expression in E. coli": "soluble"}
{"sequence": "MAHHHHHHMFLAATLDGVRSILSRIDPRQLHLYEIIREGSPCHLYLDVERESNHTALQHVIAVDDDSTSSSVEEADSLVQVEEDVGGTRRIVFQCCQSRYQELRRLAVRDPTDVCGLDCRIEPDNRNTCDVLLSALNSFVRDRHPSWVPPGLQAEGPGSVFADAWVLESVPLSGAATKFSQHYILKLHGRMFESTNSVKAFVRDFVAHVRERAAHDSQLHGALFFHKPPAWYPVFRELPLDYPRTTFPYLPRRCVIDEAVYSKNRMMRCVGSCKLGKQSVLLPYRHYVAGSCVEYFSNSANAASVSLDVFLSTLIAHRFAKDVAPVSLIKLTEEIEAPKNTRACALPASVSEGTAPATLHTVSLDVDIALLTSSLQRAYSQVANRACTVAQPHSLHGRFLSFSVRGTRYCQHIGREHKSNNVYLVVDTERMTFVQKCFDPDCASYRSPPRLLGGTP", "soluble on expression in E. coli": "not soluble"}
{"sequence": "MAHHHHHHMFNHDIIKEKDNYKQKIRTLYRNEKEAIKPCNHYDMKEEEKKKSGKIKRSIKLFGTPAVHGLSSHINNNSGTQLYYNFHNVLKRDKEKIQDDNLNYTLERDAGEDNTMQSIHESDKTETQECGKHYLYNKFDIYKSYLSYKKDLIRNEYDQDYKGITTSLLKGKDTHDDNKDNKDNDDNDDNDDNNDHNDHYDITRDDPCDDMCDDMCEDMCDDMCDDMCDDPCDDMCDDPCDDMCDDPCDDMCDDPCDDPYDHPYEEEKYSTYCDKGYLRNFLKNAIIRPNLQTFVGRKIISFLNEKERDIFSLTCKILFFEVYSVSNLKTLYKYQFISNEKRSFIWKAILLEDNTYISEEDYKELRNRKCLYDKAIEKDINRTFPKHPFFINKNMNMQDKLLDILKVCSLYFERIGYCQGMNYIAGILLLVFRKNIDTIRCFISMLKNYNIKGMFSYNFPQLKKIIYQLNLLIKAYIPKLFYYFKRKKIKIDFFCVNWFLTLFSQDLSFENTLKLWDLFFLFGMKILIKLTLILLYYHEDNIIHLSYDEALTYLKAITKTPFIDYLFQDDHFFTHLKKFKITNSMLTQIIMLKKSRQKINLLVKENNGKLRCSIQIKQNNKHTFTSKIKEGFRNLFKLNENYVDYINYFYQKGDGEENNGNQNNGEEYNGKEYNGNQNNGNQNNGKQNNGNQNNGKQNNGNQNNVKQNNGEDTNKNNNNDDINNNICHNNYSSTNFYKNFFQHFNCGNIFNNPNYSNEIVLTNTTCLSVHFNSNVLCNSQNIKNKNTIHSLENIKEEHDHTKNPSNFFLETNTYYDLNLTKSVDGNN", "soluble on expression in E. coli": "soluble"}
{"sequence": "MAHHHHHHMFVRSFCFLRKYGSKSKTPDLKTSFTKTTNFRKAEKISITTTDGEIVKGRGKIRRRTHSALKEAIGAMEHPAIWLWYPWRMNPEPPTPHMPQRRALKNVHGAVFNDLTPVQKKRQEQMLYGVNIPETRQMKFEEQHPLLAGALRKLEGQPKGFPFWYRKYPTRRHAYEYRFSIPVEMLDGYNDDVKKALSKGMMSIQEKQFAQEAMYMERYAEHDFDTTSPAVLAVKRALKCRVLRNHLLTNPHNNIIKTVLANTERKLNHALRRLRKVDFKKYWEIIRDHDVQDILQPPNLVTYRQGSYWKYDWNAGLAISTNLADVMDPRGLNGCVETGRSRSEVARDLGLSYTRPLHENEKKQLSHQAVYYERLAKFKMEQPEAARAMERERFVRKFSGMFVKMDIRSGAPDFPSTYRRLLGTKVVRWASKRHGPN", "soluble on expression in E. coli": "not soluble"}
{"sequence": "MAHHHHHHMGAKILTKIQREKLVEWENCVSVIEAAILKHKYKQKVNKNIPSLLRVQAHIRKKMV", "soluble on expression in E. coli": "not soluble"}
{"sequence": "MAHHHHHHMGDNIEKRYSLALYNVGKKNKKINEITSDILFIKNNFLKDKSFLNFLHTPNIESREKLNFLKTECKKYNNNFSPITSNFLESLFDSKRIKFLQKIIEEFELLLMKERKEIKCVVYTAKEINNNEKQKIQESILFKLKNELKPLIEYKIDKSILGGLVLQIGNQVFDFSAKYKIEKIRSTLS", "soluble on expression in E. coli": "not soluble"}
{"sequence": "MAHHHHHHMGFSLLHPLPSAIHAGSNSSRLAVQRNPCRRSTEWCHGGSSGKQKKQRHCRGSEAGRPSGLPPNPRAPPPHHHRSAEGPRRPARHRRRHRRCTEDRPSSKPPAAHPRCRWARSPRRLSEHLGRLPLLGRRILLGCSQVDILRWGAAAGINALRNGDGCPLAILVQ", "soluble on expression in E. coli": "not soluble"}
{"sequence": "MAHHHHHHMGGFSSKNMEYYNYASMKLLDRSKYINEEEEEDDYHYCKETDIRETIKKAREIKNCNYKESMDLYIKALKTLKKLKENNSRIYRNVLEFEIRPQEIANSMSLKNSLEKNMYMKKEGDKDYTGGPSNDNQTISINNKIASLYNEIADLCCIHDFIEKSLFYYDKACSYNPSKIDYIYKKGVLFQQMNDTERAINTFKIILSSEPNHIPTLFSLGNLYRYIDNHIALSYFEAILKIEPNNTEVLSLIASCYDNLGKLNEAISYQNKAVQIDPDNFNHKKFAQRLIEMKSHN", "soluble on expression in E. coli": "not soluble"}
{"sequence": "MAHHHHHHMGHKNSSNISSAPVPPPFYVLPGVPVPSLKPSNLDFSATSGKPILCAGWIAPHGNRSWSRRNVVYSSEIEIPVPQPCQVRVKIYAAGVNPADAHRTAVLPSSPEVGTSGKSRRASRHPRPPFKFPYVVGIEGAGVVESVGWAAASSGERDGSAGALTSANARDIRVGDRVAFLADLMQESGGTFCQYAVVDSDVLWKLPEVVCAPPPSTGGLVPGRLIDFVEAASLPAAAATAYIALFDKLRIETQRAIFISGASGGVGSAAVQLAHYFGLYVIASCSTPNVRYVQSLGADYVVDYTRADVVEEILTYTDNYGVDYLLECAGAFMAEAHSETVRFGGALCVLTGLLSPRSDIVFRRQLSVHYVCLGMQHQDPLARTQLQPLGELVMQLYIQGAFSVNAEQVPFVQAADALDLVASGHGRGKIVLTNFHTNEEKEERLRRRHVQLYEKAQHQYQVEETQKAAGAAAATAASEAASREAG", "soluble on expression in E. coli": "not soluble"}
{"sequence": "MAHHHHHHMGKALGMQRAKAQRLRKVVLRGSAAGSRSFLLYAQPTPNMLSETSGAVVDMCTDEFSIDIKEPSPEDAIVVASLTLRKKKMQKWREEKRTAAKPPKRAQSGASTCTLNFNKQETRWPLKISEC", "soluble on expression in E. coli": "not soluble"}
{"sequence": "MAHHHHHHMGKKRFYAVAVGRQTGVFSTWEECQKQVSGFSGARFKSFLTLQEAQAYASGVQDVEPGSVGTSLVADSHTPVLVGVKRALSLDVTLDAVEVDAADDGNEVDDESKQQVLSPEWVEARKREAVVVYVDGACRNNGSRSRERRPRAGFGGFYGDGDSRNFKFPLPAHEPQTNQRAELSALIHVLRVALDSHPCYNLCVYSDSKYTVMGVNSYLHRWERNGFKTAGGGDVANIDLWSQLTKLRNRHLSRCAERFTMEFRFKASLAAIAARAVALQLKHVPGHAGVYGNEMADRLAVEACESPFG", "soluble on expression in E. coli": "not soluble"}
